Measurements: patent US7842460B2, “Method for assessing proteolytic enzyme activity using ubiquitin fusion substrate” (Progenra Inc., priority 2004, dated 2010)

Assays:
[1] = target: T1, yeast ULP1 protein (SUMO protease catalytic domain) (Saccharomyces cerevisiae, UniProt Q02724); assay: Cleavage of SUMO-GPATase by yeast ULP1 (SDS-PAGE); type: biochemical; details: 3 hours
T1 construct: treatment with the yeast ULP1 protein (SUMO protease catalytic domain)
T1 sequence (Q02724 432-621 limits assumed): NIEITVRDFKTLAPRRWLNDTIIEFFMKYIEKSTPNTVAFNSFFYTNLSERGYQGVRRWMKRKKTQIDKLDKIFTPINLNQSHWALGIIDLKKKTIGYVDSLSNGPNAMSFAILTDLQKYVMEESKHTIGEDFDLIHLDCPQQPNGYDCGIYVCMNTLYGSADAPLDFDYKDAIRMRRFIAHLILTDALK
Protocol: The SUMO protein was cleaved from a SUMO-GPATase fusion protein by treatment with the yeast ULP1 protein (SUMO protease catalytic domain). Approximately 5 μg SUMO-GPATase were incubated at 30° C. for 3 hours with increasing concentrations of the ULP1 enzyme in a reaction mixture containing 50 mM Tris-HCl pH 7.5, 1 mM EDTA, 10 mM DTT. The reaction was quenched by addition of SDS-PAGE sample buffer, heated, and loaded directly on a 12% SDS-polyacrylamide gel, and electrophoresed. After electrophoresis, the gel was stained to visualize the proteins. […] This inability of the ULP1 enzyme to cut the fusion protein may reflect the occurrence of steric hindrance around the cleavage site, or some partial modification of the junction sequence, e.g. oxidation of the Cysteine residue at the amino-terminal end of GPATase.

ULP1 SUMO protease = target: T2, ULP1 SUMO protease (Saccharomyces cerevisiae, UniProt Q02724); assay: In vitro GPATase activity assay (coupled GDH assay) of fusion -/+ Ulp1; type: biochemical, yeast
T2 construct: treatment with the yeast ULP1 protein (SUMO protease catalytic domain)
T2 sequence (Q02724 432-621 limits assumed): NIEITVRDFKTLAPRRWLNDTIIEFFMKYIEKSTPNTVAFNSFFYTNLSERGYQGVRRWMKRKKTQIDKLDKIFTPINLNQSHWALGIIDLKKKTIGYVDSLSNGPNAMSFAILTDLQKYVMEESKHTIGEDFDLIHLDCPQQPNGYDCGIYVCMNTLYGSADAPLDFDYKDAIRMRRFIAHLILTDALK
From the text: GPATase, a glutaminase enzyme, hydrolizes 5-phospho ribosyl pyrophosphate (PRPP) […], 5-phosphoribosyl-(b)1-amine (PRA) and pyrophosphate (PPi). This glutaminase reaction was monitored by measuring the production of glutamate by means of a coupled glutamate dehydrogenase (GDH) assay under standard reaction conditions described by Messenger and Zalkin (1979).
[…]
The coupled GDH assay employed to assess GPATase activity was examined for accuracy. Increasing amounts of the purified SUMO-GPATase fusion protein, either untreated or cleaved by the ULP1 SUMO protease, were incubated in the presence of glutamine and PRPP for a fixed period of time, and the completed reaction was then used as substrate in a GDH assay. […] This is particularly so at enzyme concentrations of 1 μg or less. Thus, the amount of NAD^+ reduced in the GDH reaction directly correlates with the amount of active GPATase enzyme in the initial reaction. In addition, treatment with ULP1 results in at least a 10-fold increase in the glutaminase activity of GPATase, despite the fact that only partial cleavage of SUMO-GPATase has been observed thus far.

B1: SUMO-GPATase: Fusion of SUMO (Smt3) C-terminal Gly-Gly to mature E. coli glutamine phosphoribosylpyrophosphate amidotransferase N-terminus (protein)
chain: CGIVGIAGVMPVNQSIYDALTVLQHRGQDAAGIITIDANNCFRLRKANGLVSDVFEARHMQRLQGNMGIGHVRYPTAGSSSASEAQPFYVNSPYGITLAHNGNLTNAHELRKKLFEEKRRHINTTSDSEILLNIFASELDNFRHYPLEADNIFAAIAATNRLIRGAYACVAMIIGHGMVAFRDPNGIRPLVLGKRDIDENRTEYMVASESVALDTLGFDFLRDVAPGEAIYITEEGQLFTRQCADNPVSNPCLFEYVYFARPDSFIDKISVYSARVNMGTKLGEKIAREWEDLDIDVVIPIPETSCDIALEIARILGKPYRQGFVKNRYVGRTFIMPGQQLRRKSVRRKLNANRAEFRDKNVLLVDDSIVRGTTSEQIIEMAREAGAKKVYLASAAPEIRFPNVYGIDMPSATELIAHGREVDEIRQIIGADGLIFQDLNDLIDAVRAENPDIQQFECSVFNGVYVTKDVDQGYLDFLDTLRNDDAKAVQRQNEVENLEMHNEG
modifications: left off: large carriers
notes: Fusion of SUMO (Smt3) C-terminal Gly-Gly to mature E. coli glutamine phosphoribosylpyrophosphate amidotransferase N-terminus
With B1 the “amount of Ulp1 at which cleavage of the fusion was demonstrated” value ([1]; approx. 5 μg SUMO-GPATase, 30° C.) was 0.009 units, the completeness of cleavage ([1]; with as much as 78.3 Units Ulp1, 30° C.) was “cleavage was never fully achieved” and the “increase in the glutaminase activity of GPATase on treatment with ULP1” value (ULP1 SUMO protease; ULP1-cleaved vs untreated fusion, only partial cleavage) was no less than 10 fold. The “absorbance at OD 363 in GDH assay (GPATase activity)” value (ULP1 SUMO protease; absence of Ulp1) was “this increase of absorbance did not occur” and the “absorbance at OD 363 in GDH assay (GPATase activity)” value (ULP1 SUMO protease; fusion incubated 30 minutes with Ulp1) was “an increase is absorbance”.
